Columns and labels:
WT human MC4R [1] = biological target: T1, WT human MC4R (Homo sapiens, UniProt P32245); assay: β-arrestin recruitment assay; type: cell-based; conditions: for EC50: WT human MC4R-expressing HEK293T cells
T1 construct: Flag (N); expressed in transfected cells; host or cells: HEK293T

human wild type MC5R = biological target: T2, human wild type MC5R (Homo sapiens, UniProt P33032); assay: cAMP GloSensor assay, MC5R; type: cell-based
T2 construct: expressed in transfected cells; host or cells: HEK293 / HEK 293T, pcDNA3.1(+)

human wild type MC1R = biological target: T3, human wild type MC1R (Homo sapiens, UniProt Q01726); assay: cAMP GloSensor assay, MC1R; type: cell-based
T3 construct: expressed in transfected cells; host or cells: HEK293 / HEK 293T, pcDNA3.1(+)

human wild type MC4R = human wild type MC4R (Homo sapiens, UniProt P32245); assay: cAMP signaling assay (Lance Ultra HTRF); type: cell-based; parameters: double Twin Strep tag; expressed in transfected cells; host or cells: HEK293; conditions: purified nanobodies, human MC4R-overexpressing HEK293 cells, read-out: potencies, MC4R-mediated dose-dependent cAMP accumulation
Protocol: (§1) To confirm MC4R activation, dose-dependent nanobody-induced cAMP signaling was assessed (Lance Ultra HTRF). […] Binding of pN162 to the human melanocortin receptor subtypes MC1R, MC2R, MC3R, MC4R or MC5R transiently expressed as Flag-tagged receptors in HEK293T cells was assessed by flow cytometry.

human MC4R = biological target: T4, human MC4R (Homo sapiens, UniProt P32245); assay: Flow cytometry binding to Flag-tagged receptor in HEK293T cells, MC4R; conditions: 1 μM
T4 construct: Flag; expressed in transfected cells; host or cells: HEK293T
Protocol: as §1

[2] = tested on: moderately pigmented normal human epidermal melanocytes (NHEM-MP); assay: In vitro pigmentation assay, melanin synthesis, 2D NHEM moderately pigmented; type: cell-based; conditions: 10 days
Protocol: Highly and moderately pigmented melanocytes were seeded in 24-well plates and cultured in culture medium for 24 hours. The medium was then replaced by culture medium containing or not (control) the test compounds or the reference compounds (L-tyrosine at 1 mM, IBMX at 100 and 200 μM and NDP-MSH at 10 μM). The cells were then incubated for 10 days with treatment renewal at day 3 and day 7. All experimental conditions were performed in n=3. At the end of the incubation time, the culture supernatants were removed, and melanin was extracted by cell lysis using a 0.5 N NaOH solution. The optical density (OD) of each experimental point was measured at 405 nm and melanin quantity was determined according to melanin standard curve (standard curve ranging from 0.39 to 100 μg/ml). The results were expressed in μg/ml of melanin. […] NHEM-HP response to L-tyrosine and NDP-MSH was stronger than in NHEM-MP while IBMX induced a stronger response in the NHEM-MP.

DIO mice = assay: Diet-induced obese (DIO) mouse study, acute setting, ICV administration; type: in vivo
Protocol: The mouse studies described in Examples 2 and 3 were performed at a fully AAALAC accredited unit (Gubra, Denmark), and all animal experiments were conducted in accordance with the CRO's bioethical guidelines, which are fully compliant to internationally accepted principles for the care and use of laboratory animals. All experiments were licensed by the Danish Animal Experimentation Council. This animal model is based on male C57BI/6J mice that are fed for a minimum of 18 weeks a 60% high fat diet that result in rapid weight gain. The mice were obtained from commercial vendors in Europe and United States transferred to Gubra's animal unit. The animal room environment is controlled (targeted ranges: temperature 21±2° C.; relative humidity 50±10%). The animals are maintained on a reversed 12 h light/dark cycle and have access to plenty of bedding material, shelters and chewing sticks. Animals were dosed just before lights went off.
Male DIO mice (5 weeks of age at time of arrival and HF diet induction, 46 weeks of age at study start, n=50) had ad libitum access to 60% high fat diet (D12492, Research diets) and water. The DIO mice were acclimatized to an automated real-time food intake monitoring system (MoNI system) individually housed in the system for 14 days prior to study start. The animals went through ICV cannulation on study day −6/−5 and on study day−1, animals were randomized into 5 treatment groups (n=8 per group) based on body weight (PM, day−2).

WT human MC4R [3] = biological target: T1, WT human MC4R; assay: Gs ConfoSensor recruitment assay; type: cell-based; conditions: for EC50: WT human MC4R-expressing HEK293T cells
human MC5R = biological target: T5, human MC5R (Homo sapiens, UniProt P33032); assay: Flow cytometry binding to Flag-tagged receptor in HEK293T cells, MC5R; conditions: 1 μM
T5 construct: Flag; expressed in transfected cells; host or cells: HEK293T
Protocol: as §1

human MC3R = biological target: T6, human MC3R (Homo sapiens, UniProt P41968); assay: Flow cytometry binding to Flag-tagged receptor in HEK293T cells, MC3R; conditions: 1 μM
T6 construct: Flag; expressed in transfected cells; host or cells: HEK293T
Protocol: as §1

human wild type MC3R = biological target: T7, human wild type MC3R (Homo sapiens, UniProt P41968); assay: cAMP GloSensor assay, MC3R; type: cell-based
T7 construct: expressed in transfected cells; host or cells: HEK293 / HEK 293T, pcDNA3.1(+)

human MC2R = biological target: T8, human MC2R (Homo sapiens, UniProt Q01718); assay: Flow cytometry binding to Flag-tagged receptor in HEK293T cells, MC2R; conditions: 1 μM
T8 construct: Flag; expressed in transfected cells; host or cells: HEK293T
Protocol: as §1

human MC1R = biological target: T9, human MC1R (Homo sapiens, UniProt Q01726); assay: Flow cytometry binding to Flag-tagged receptor in HEK293T cells, MC1R; conditions: 1 μM
T9 construct: Flag; expressed in transfected cells; host or cells: HEK293T
Protocol: as §1

MC4R = assay: Radioligand displacement, CHO stable cell line; type: binding; conditions: mean ± spread, n = 2
[4] = Flag-tagged WT human MC4R HEK293T cells
[5] = absence vs presence of 1 mM Ca2+
[6] = GloSensor head-to-head receptor subtype comparison
[7] = pN162 0.5 and 5 nmol ICV on day 0 and day 2, study day 4

T1 sequence (P32245 whole entry): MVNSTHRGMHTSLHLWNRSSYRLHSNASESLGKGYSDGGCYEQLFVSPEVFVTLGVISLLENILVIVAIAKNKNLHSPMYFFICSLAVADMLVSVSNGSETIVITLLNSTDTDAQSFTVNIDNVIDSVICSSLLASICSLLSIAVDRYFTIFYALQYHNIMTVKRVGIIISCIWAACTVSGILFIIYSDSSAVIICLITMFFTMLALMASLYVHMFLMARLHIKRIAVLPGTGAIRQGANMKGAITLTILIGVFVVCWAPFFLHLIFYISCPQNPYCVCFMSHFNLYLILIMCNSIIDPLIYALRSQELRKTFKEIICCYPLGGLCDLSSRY
T2 sequence (P33032 whole entry): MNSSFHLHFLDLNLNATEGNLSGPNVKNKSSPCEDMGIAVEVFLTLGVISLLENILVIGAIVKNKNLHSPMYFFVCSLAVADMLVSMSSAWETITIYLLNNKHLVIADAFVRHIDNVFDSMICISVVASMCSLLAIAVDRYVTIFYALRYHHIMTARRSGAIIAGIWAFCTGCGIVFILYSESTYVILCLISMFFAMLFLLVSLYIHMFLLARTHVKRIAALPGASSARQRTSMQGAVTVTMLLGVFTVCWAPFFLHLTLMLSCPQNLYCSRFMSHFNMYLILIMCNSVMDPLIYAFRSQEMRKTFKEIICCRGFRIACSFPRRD
T3 sequence (Q01726 whole entry): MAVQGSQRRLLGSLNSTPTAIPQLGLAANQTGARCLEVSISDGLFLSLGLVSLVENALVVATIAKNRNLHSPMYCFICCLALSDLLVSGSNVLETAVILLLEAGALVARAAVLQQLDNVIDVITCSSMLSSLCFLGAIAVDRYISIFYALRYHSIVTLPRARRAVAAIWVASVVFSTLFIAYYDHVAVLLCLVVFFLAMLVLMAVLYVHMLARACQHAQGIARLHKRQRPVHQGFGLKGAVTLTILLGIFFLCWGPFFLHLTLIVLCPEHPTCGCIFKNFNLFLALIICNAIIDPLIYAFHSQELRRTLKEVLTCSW
T7 sequence (P41968 whole entry): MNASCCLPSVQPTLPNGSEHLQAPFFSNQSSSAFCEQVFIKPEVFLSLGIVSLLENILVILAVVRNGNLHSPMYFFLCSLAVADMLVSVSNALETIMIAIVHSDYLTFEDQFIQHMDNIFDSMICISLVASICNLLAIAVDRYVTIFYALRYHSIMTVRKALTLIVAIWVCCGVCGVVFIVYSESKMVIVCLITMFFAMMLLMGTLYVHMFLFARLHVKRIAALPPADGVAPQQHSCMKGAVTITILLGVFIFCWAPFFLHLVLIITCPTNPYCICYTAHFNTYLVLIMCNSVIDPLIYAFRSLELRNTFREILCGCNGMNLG
T5 sequence (P33032 whole entry): as the sequence (P33032 whole entry) above
T9 sequence (Q01726 whole entry): as the sequence (Q01726 whole entry) above
Chain of human wild type MC4R (P32245 whole entry): as the sequence (P32245 whole entry) above
T4 sequence (P32245 whole entry): as above
T6 sequence (P41968 whole entry): as the sequence (P41968 whole entry) above
T8 sequence (Q01718 whole entry): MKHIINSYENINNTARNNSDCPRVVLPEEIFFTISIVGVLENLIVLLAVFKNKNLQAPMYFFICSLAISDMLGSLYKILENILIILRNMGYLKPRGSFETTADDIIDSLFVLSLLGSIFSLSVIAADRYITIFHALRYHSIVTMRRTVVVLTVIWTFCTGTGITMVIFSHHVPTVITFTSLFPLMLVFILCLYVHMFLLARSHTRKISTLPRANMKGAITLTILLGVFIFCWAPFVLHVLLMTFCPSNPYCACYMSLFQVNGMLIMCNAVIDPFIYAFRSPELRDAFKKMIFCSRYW

B1: pN162: agonistic anti-MC4R VHH, SEQ ID NO: 184; parental clone for potency maturation (protein)
VHH: QVQLVESGGGLVQPGGSLRLSCAASGSAFSLNVMGWYRQTPGNQRALVAEITKDGSTNYADSAKGRFTISRDNAKNTVHLQMDSLKPEDTAVYYCKARTGRIVRPLDYWGQGTQVTVSS
modifications: pN0162
- β-arrestin2 recruitment (WT human MC4R [1]; [4]): dose-dependently recruits
- EC50 (WT human MC4R [1]; No Ca^2+, read-out: β-arrestin No Ca^2+ (EC50)): 16 ± 2.1 nM
- dependence of β-arrestin recruitment on Ca2+ ions (WT human MC4R [1]; [5]): independent of Ca^2+ ions
- EC50 (WT human MC4R [1]; read-out: β-arrestin 1 mM Ca^2+ (EC50), 1 mM Ca^2+): 23 ± 7.1 nM
- detectable cAMP signaling, MC5R (human wild type MC5R; [6]): only induced detectable signaling on MC4R
- cAMP potency (EC50) MC5R (human wild type MC5R; GloSensor, average EC50, human MC5R): No effect
- detectable cAMP signaling, MC1R (human wild type MC1R; [6]): only induced detectable signaling on MC4R
- cAMP potency (EC50) MC1R (human wild type MC1R; GloSensor, average EC50, human MC1R): No effect
- EC50 (human wild type MC4R): 0.7 nM
- binding to MC4R by flow cytometry (human MC4R): only demonstrated for MC4R
- modulation of melanin synthesis [2]: did not modulate
- cumulative food intake after first dose (DIO mice; pN162 0.5 and 5 nmol ICV): reduced by pN162 in a dose-dependent manner
- cumulative food intake compared to vehicle (DIO mice; [7]): reduced
- relative body weight compared to vehicle (DIO mice; [7]): reduced
- Gs recruitment (WT human MC4R [3]; [4]): dose-dependently recruits
- EC50 (WT human MC4R [3]; No Ca^2+, read-out: Gs ConfoSensor No Ca^2+ (EC50)): 8.5 ± 2.1 nM
- dependence of Gs recruitment on Ca2+ ions (WT human MC4R [3]; [5]): independent of Ca^2+ ions
- EC50 (WT human MC4R [3]; read-out: Gs ConfoSensor 1 mM Ca^2+ (EC50), 1 mM Ca^2+): 12 ± 5 nM
- binding to MC5R by flow cytometry (human MC5R): No binding could be detected
- binding to MC3R by flow cytometry (human MC3R): No binding could be detected
- detectable cAMP signaling, MC3R (human wild type MC3R; [6]): only induced detectable signaling on MC4R
- cAMP potency (EC50) MC3R (human wild type MC3R; GloSensor, average EC50, human MC3R): No effect
- binding to MC2R by flow cytometry (human MC2R): No binding could be detected
- binding to MC1R by flow cytometry (human MC1R): No binding could be detected
- Radioligand displacement (MC4R): 6.48 ± 1.96 nM

From patent publication US20260103529A1, “Amino Acid Sequences Directed Against the Melanocortin 4 Receptor and Polypeptides Comprising the Same for the Treatment of MC4R-Related Diseases and Disorders” (Confo Therapeutics N.V., priority 2022, published 2026)
